Experimental data reported in article PMC4119481.

Target: T1, IFN regulatory factor 3 (mouse (endogenous in BMDMs)), P70671
T1 chain: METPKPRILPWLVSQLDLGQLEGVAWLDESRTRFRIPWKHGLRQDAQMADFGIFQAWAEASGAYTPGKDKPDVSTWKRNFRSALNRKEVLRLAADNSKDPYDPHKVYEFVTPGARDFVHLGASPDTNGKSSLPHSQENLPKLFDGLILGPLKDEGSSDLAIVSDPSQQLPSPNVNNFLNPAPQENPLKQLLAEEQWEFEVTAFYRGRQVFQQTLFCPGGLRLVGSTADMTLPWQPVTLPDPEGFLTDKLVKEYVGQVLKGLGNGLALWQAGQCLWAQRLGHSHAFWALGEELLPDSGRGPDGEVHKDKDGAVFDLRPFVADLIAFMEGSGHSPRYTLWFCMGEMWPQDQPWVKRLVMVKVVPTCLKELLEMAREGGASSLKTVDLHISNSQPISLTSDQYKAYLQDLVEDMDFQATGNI
Experiment: native gel or EMSA
Details: remark: other sources report otherwise

stoichiometry N: 2
B1: IFN regulatory factor 3, P70671 1-419 (natural protein)
chain: METPKPRILPWLVSQLDLGQLEGVAWLDESRTRFRIPWKHGLRQDAQMADFGIFQAWAEASGAYTPGKDKPDVSTWKRNFRSALNRKEVLRLAADNSKDPYDPHKVYEFVTPGARDFVHLGASPDTNGKSSLPHSQENLPKLFDGLILGPLKDEGSSDLAIVSDPSQQLPSPNVNNFLNPAPQENPLKQLLAEEQWEFEVTAFYRGRQVFQQTLFCPGGLRLVGSTADMTLPWQPVTLPDPEGFLTDKLVKEYVGQVLKGLGNGLALWQAGQCLWAQRLGHSHAFWALGEELLPDSGRGPDGEVHKDKDGAVFDLRPFVADLIAFMEGSGHSPRYTLWFCMGEMWPQDQPWVKRLVMVKVVPTCLKELLEMAREGGASSLKTVDLHISNSQPISLTSDQYKAYLQDLVEDMDFQATGNI
